# Data as given in IntAct's records for PubMed 10376594.
# B1: Apoptotic protease-activating factor 1 (Homo sapiens), O14727 (parent)
# chain: MDAKARNCLLQHREALEKDIKTSYIMDHMISDGFLTISEEEKVRNEPTQQQRAAMLIKMILKKDNDSYVSFYNALLHEGYKDLAALLHDGIPVVSSSSGKDSVSGITSYVRTVLCEGGVPQRPVVFVTRKKLVNAIQQKLSKLKGEPGWVTIHGMAGCGKSVLAAEAVRDHSLLEGCFPGGVHWVSVGKQDKSGLLMKLQNLCTRLDQDESFSQRLPLNIEEAKDRLRILMLRKHPRSLLILDDVWDSWVLKAFDSQCQILLTTRDKSVTDSVMGPKYVVPVESSLGKEKGLEILSLFVNMKKADLPEQAHSIIKECKGSPLVVSLIGALLRDFPNRWEYYLKQLQNKQFKRIRKSSSYDYEALDEAMSISVEMLREDIKDYYTDLSILQKDVKVPTKVLCILWDMETEEVEDILQEFVNKSLLFCDRNGKSFRYYLHDLQVDFLTEKNCSQLQDLHKKIITQFQRYHQPHTLSPDQEDCMYWYNFLAYHMASAKMHKELCALMFSLDWIKAKTELVGPAHLIHEFVEYRHILDEKDCAVSENFQEFLSLNGHLLGRQPFPNIVQLGLCEPETSEVYQQAKLQAKQEVDNGMLYLEWINKKNITNLSRLVVRPHTDAVYHACFSEDGQRIASCGADKTLQVFKAETGEKLLEIKAHEDEVLCCAFSTDDRFIATCSVDKKVKIWNSMTGELVHTYDEHSEQVNCCHFTNSSHHLLLATGSSDCFLKLWDLNQKECRNTMFGHTNSVNHCRFSPDDKLLASCSADGTLKLWDATSANERKSINVKQFFLNLEDPQEDMEVIVKCCSWSADGARIMVAAKNKIFLFDIHTSGLLGEIHTGHHSTIQYCDFSPQNHLAVVALSQYCVELWNTDSRSKVADCRGHLSWVHGVMFSPDGSSFLTSSDDQTIRLWETKKVCKNSAVMLKQEVDVVFQENEVMVLAVDHIRRLQLINGRTGQIDYLTEAQVSCCCLSPHLQYIAFGDENGAIEILELVNNRIFQSRFQHKKTVWHIQFTADEKTLISSSDDAEIQVWNWQLDKCIFLRGHQETVKDFRLLKNSRLLSWSFDGTVKVWNIITGNKEKDFVCHQGTVLSCDISHDATKFSSTSADKTAKIWSFDLLLPLHELRGHNGCVRCSAFSVDSTLLATGDDNGEIRIWNVSNGELLHLCAPLSEEGAATHGGWVTDLCFSPDGKMLISAGGYIKWWNVVTGESSQTFYTNGTNLKKIHVSPDFKTYVTVDNLGILYILQTLE
# B2: Caspase-9 (Homo sapiens), P55211 (parent)
# chain: MDEADRRLLRRCRLRLVEELQVDQLWDALLSRELFRPHMIEDIQRAGSGSRRDQARQLIIDLETRGSQALPLFISCLEDTGQDMLASFLRTNRQAAKLSKPTLENLTPVVLRPEIRKPEVLRPETPRPVDIGSGGFGDVGALESLRGNADLAYILSMEPCGHCLIINNVNFCRESGLRTRTGSNIDCEKLRRRFSSLHFMVEVKGDLTAKKMVLALLELAQQDHGALDCCVVVILSHGCQASHLQFPGAVYGTDGCPVSVEKIVNIFNGTSCPSLGGKPKLFFIQACGGEQKDHGFEVASTSPEDESPGSNPEPDATPFQEGLRTFDQLDAISSLPTPSDIFVSYSTFPGFVSWRDPKSGSWYVETLDDIFEQWAHSEDLQSLLLRVANAVSVKGIYKQMPGCFNFLRKKLFFKTS
# Variants of: B1
# Details: with casp9_human CASP9, P55211
row,Variant,effect of a mutation on the interaction
1,E40A,disrupting interaction
2,D27A,disrupting interaction
3,S31A,decreasing interaction

# Variants of: B2
# Details: with apaf_human APAF1, O14727
row,Variant,effect of a mutation on the interaction
1,R56A,disrupting interaction
2,R52A,decreasing interaction
3,R11A,decreasing interaction
4,R13A,disrupting interaction
